Patent US20260125451A1 (JIANGSU HENGRUI PHARMACEUTICALS, published 2026)
Where two headings read alike, the source gives them in different places.

T1: APRIL (Acro Biosystems, Cat: APL-H52D1) (UniProt O75888 115-250, limits assumed)
T1 construct: also called ARPIL; A proliferation-inducing ligand
T1 sequence (looked up): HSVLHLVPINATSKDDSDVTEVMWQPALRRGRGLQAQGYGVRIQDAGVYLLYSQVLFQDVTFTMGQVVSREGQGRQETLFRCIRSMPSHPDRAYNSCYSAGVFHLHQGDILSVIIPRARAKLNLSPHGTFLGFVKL

T2: type I interferon (IFN) receptor subunit 1 (IFNAR1) (human, UniProt P17181 28-557)
T2 sequence (looked up): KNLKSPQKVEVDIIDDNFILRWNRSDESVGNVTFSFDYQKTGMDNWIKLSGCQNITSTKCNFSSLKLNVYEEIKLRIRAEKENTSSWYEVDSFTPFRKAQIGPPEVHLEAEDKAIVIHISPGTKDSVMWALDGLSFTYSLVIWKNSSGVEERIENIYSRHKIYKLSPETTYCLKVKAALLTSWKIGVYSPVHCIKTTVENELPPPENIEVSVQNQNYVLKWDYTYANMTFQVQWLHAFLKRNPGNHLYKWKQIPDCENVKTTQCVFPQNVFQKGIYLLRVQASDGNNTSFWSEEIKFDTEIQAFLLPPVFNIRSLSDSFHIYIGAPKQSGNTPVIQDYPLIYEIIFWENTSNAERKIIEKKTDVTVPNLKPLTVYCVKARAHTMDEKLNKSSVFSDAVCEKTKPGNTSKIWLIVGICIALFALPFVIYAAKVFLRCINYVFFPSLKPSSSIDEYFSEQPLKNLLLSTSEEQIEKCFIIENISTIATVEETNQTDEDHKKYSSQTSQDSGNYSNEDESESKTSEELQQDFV

T3: recombinant human ARPIL (R&D cat: 5860-AP-010/CF) (human, UniProt O75888 105-250, limits assumed)
T3 sequence (looked up): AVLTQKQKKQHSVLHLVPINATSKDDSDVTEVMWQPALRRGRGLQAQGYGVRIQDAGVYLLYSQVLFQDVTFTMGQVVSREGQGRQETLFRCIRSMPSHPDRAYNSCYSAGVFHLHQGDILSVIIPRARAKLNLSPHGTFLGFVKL


Key:
[1] = biological target: T4, BAFF (PeproTech, Cat: 310-13) (UniProt Q9Y275 134-285); experiment: ELISA, BAFF coated, anti-human Fc-HRP
[2] = biological target: T4, BAFF (PeproTech, Cat: 310-13); experiment: ELISA, BAFF coated, anti-human Fc-HRP, OD450
Procedure: (§1) The capabilities of TACI-BCMA fusion proteins (B575701, B575702, B575703, and B575704) to bind to BAFF and APRIL were assessed by ELISA as follows:
(§2) BAFF (PeproTech, Cat: 310-13) or ARPIL (Acro Biosystems, Cat: APL-H52D1) was diluted to 1 μg/mL with PBS, and a 96-well plate (Costar, Cat: 3590) was coated with the dilution overnight at 4° C. The plate was washed with PBST and blocked with Blocking Buffer (PBST containing 1% BSA) at 37° C. for 1 h. The plate was tapped. The test antibodies were diluted with Blocking Buffer. Incubation was performed at 37° C. for 1.5 h. The plate was washed with PBST. An HRP-mouse anti-human Fc antibody (GenScript, Cat: A01854-200) was diluted with Blocking Buffer. Incubation was performed at 37° C. for 40 min. The plate was washed with PBST. 100 μL of TMB substrate solution (Biopanda, Cat: TMB-S-003) was added, and color development was performed at 37° C. for 3 min. 100 μL of ELISA stop solution (Solarbio, Cat: C1058) was added. OD450 was measured.

[3] = biological target: T1, APRIL (Acro Biosystems, Cat: APL-H52D1); experiment: ELISA, APRIL coated, anti-human Fc-HRP, OD450
Procedure: as §1, §2

[4] = biological target: T2, type I interferon (IFN) receptor …; experiment: cell-based or functional assay
[5] = biological target: T1, APRIL (Acro Biosystems, Cat: APL-H52D1); experiment: ELISA, APRIL coated, anti-human Fc-HRP
[6] = biological target: T1, APRIL (Acro Biosystems, Cat: APL-H52D1); experiment: ELISA, APRIL coated, anti-human Fc-HRP, OD450; remark: listed apart in the source
Procedure: The capabilities of fusion proteins B606401, B637302, B746201, and B805201 to bind to BAFF and APRIL were assessed by ELISA as follows:
as §2, with “plate” for “plate (Costar, Cat: 3590)”
The EC₅₀ value for the capability of B637302 to bind to APRIL decreased to 1/7 to ⅙ of that of telitacicept.

[7] = biological target: T2, type I interferon (IFN) receptor …; experiment: cell-based or functional assay; remark: listed apart in the source
[8] = biological target: recombinant human BAFF (R&D cat: 7537-BF-025/CF) (human, UniProt Q9Y275 134-285, limits assumed); experiment: cell-based or functional assay
[9] = biological target: T3, recombinant human ARPIL (R&D cat: …); experiment: cell-based or functional assay
[10] = biological target: T1, APRIL (Acro Biosystems, Cat: APL-H52D1); experiment: ELISA, APRIL coated, anti-human Fc-HRP, OD450; remark: listed apart in the source
Procedure: The capabilities of B613301, B613302, and B613303, which are fusion proteins of anifrolumab and TACI-BCMA, to bind to BAFF and APRIL were assessed by ELISA as follows:
as §2

| EC50 relative to that of telitacicept [1] | Emax [2] | Emax [3] | Emax [6] | Binder | also measured |
| --- | --- | --- | --- | --- | --- |
| 0.25 ratio | 2.29 nM | 2.68 nM | – | B575704 (Fc fusion, TACI-BCMA fusion protein; also called BCMA-ECD-TACI-T2-Fc) MLQMAGQCSQNEYFDSLLHACIPCQLRCSSNTPPLTCQRYCNASVTNSVKGTNASRVDQEERFPQGLWTGVAMRSCPEEQYWDPLLGTCMSCKTICNHQSQRTCAAFCRSLSCRKEQGKFYDHLLRDCISCASICGQHPKQCAYFCENKLRSPVNLPPELDKTHTCPPCPAPEAEGAPSVFLFPPKPKDTLMISRTPEVTCVVVDVSHEDPEVKFNWYVDGVEVHNAKTKPREEQYNSTYRVVSVLTVLHQDWLNGKEYKCKVSNKALPSSIEKTISKAKGQPREPQVYTLPPSRDELTKNQVSLTCLVKGFYPSDIAVEWESNGQPENNYKTTPPVLDSDGSFFLYSKLTVDKSRWQQGNVFSCSVMHEALHNHYTQKSLSLSPGK | – |
| – | – | – | 2.8 nM | B746201 (other, Fusion protein of anifrolumab, TACI-19-16 and BCMA-ECD-2) heavy: EVQLVQSGAEVKKPGESLKISCKGSGYIFTNYWIAWVRQMPGKGLESMGIIYPGDSDIRYSPSFQGQVTISADKSITTAYLQWSSLKASDTAMYYCARHDIEGFDYWGRGTLVTVSSASTKGPSVFPLAPSSKSTSGGTAALGCLVKDYFPEPVTVSWNSGALTSGVHTFPAVLQSSGLYSLSSVVTVPSSSLGTQTYICNVNHKPSNTKVDKRVEPKSCDKTHTCPPCPAPEFEGGPSVFLFPPKPKDTLMISRTPEVTCVVVDVSHEDPEVKFNWYVDGVEVHNAKTKPREEQYNSTYRVVSVLTVLHQDWLNGKEYKCKVSNKALPASIEKTISKAKGQPREPQVYTLPPSRDELTKNQVSLTCLVKGFYPSDIAVEWESNGQPENNYKTTPPVLDSDGSFFLYSKLTVDKSRWQQGNVFSCSVMHEALHNHYTQKSLSLSPGKGGGGSGGGGSGGGGSMLQMAGQCSQNEYFDSLLHACIPCQLRCSSNTPPLTCQRYCSTSCREEQGEFYDHLLRDCISCASICGQHPKQCAAFCE light: EIVLTQSPGTLSLSPGERATLSCRASQSVSSSFFAWYQQKPGQAPRLLIYGASSRATGIPDRLSGSGSGTDFTLTITRLEPEDFAVYYCQQYDSSAITFGQGTRLEIKRTVAAPSVFIFPPSDEQLKSGTASVVCLLNNFYPREAKVQWKVDNALQSGNSQESVTEQDSKDSTYSLSSTLTLSKADYEKHKVYACEVTHQGLSSPVTKSFNRGEC | IC50, inhibition of IFN-α-induced in vitro differentiation of B cells into plasma cells [4]: 1.9 nM; EC50 relative to that of telitacicept [5]: 0.333 ratio; IC50 (nM), inhibition of the activity of type I interferons (IFN-β, HEK-Blue IFN-α/β cells) [7]: 1.64 nM |
| 0.5 ratio | 2.31 nM | 2.69 nM | – | B575701 (Fc fusion, TACI-BCMA fusion protein; also called TACI-d2-BCMA-ECD-Fc) LSCRKEQGKFYDHLLRDCISCASICGQHPKQCAYFCENKLRSPGMLQMAGQCSQNEYFDSLLHACIPCQLRCSSNTPPLTCQRYCNASVTNSVKGTNADKTHTCPPCPAPEAEGAPSVFLFPPKPKDTLMISRTPEVTCVVVDVSHEDPEVKFNWYVDGVEVHNAKTKPREEQYNSTYRVVSVLTVLHQDWLNGKEYKCKVSNKALPSSIEKTISKAKGQPREPQVYTLPPSRDELTKNQVSLTCLVKGFYPSDIAVEWESNGQPENNYKTTPPVLDSDGSFFLYSKLTVDKSRWQQGNVFSCSVMHEALHNHYTQKSLSLSPGK | – |
| 0.25 ratio | 2.24 nM | 2.64 nM | – | B575702 (Fc fusion, TACI-BCMA fusion protein; also called BCMA-ECD-TACI-d2-Fc) MLQMAGQCSQNEYFDSLLHACIPCQLRCSSNTPPLTCQRYCNASVTNSVKGTNALSCRKEQGKFYDHLLRDCISCASICGQHPKQCAYFCENKLRSPGDKTHTCPPCPAPEAEGAPSVFLFPPKPKDTLMISRTPEVTCVVVDVSHEDPEVKFNWYVDGVEVHNAKTKPREEQYNSTYRVVSVLTVLHQDWLNGKEYKCKVSNKALPSSIEKTISKAKGQPREPQVYTLPPSRDELTKNQVSLTCLVKGFYPSDIAVEWESNGQPENNYKTTPPVLDSDGSFFLYSKLTVDKSRWQQGNVFSCSVMHEALHNHYTQKSLSLSPGK | – |
| 0.5 ratio | 2.43 nM | 2.78 nM | – | B575703 (Fc fusion, TACI-BCMA fusion protein; also called TACI-T2-BCMA-ECD-Fc) SRVDQEERFPQGLWTGVAMRSCPEEQYWDPLLGTCMSCKTICNHQSQRTCAAFCRSLSCRKEQGKFYDHLLRDCISCASICGQHPKQCAYFCENKLRSPVNLPPELMLQMAGQCSQNEYFDSLLHACIPCQLRCSSNTPPLTCQRYCNASVTNSVKGTNADKTHTCPPCPAPEAEGAPSVFLFPPKPKDTLMISRTPEVTCVVVDVSHEDPEVKFNWYVDGVEVHNAKTKPREEQYNSTYRVVSVLTVLHQDWLNGKEYKCKVSNKALPSSIEKTISKAKGQPREPQVYTLPPSRDELTKNQVSLTCLVKGFYPSDIAVEWESNGQPENNYKTTPPVLDSDGSFFLYSKLTVDKSRWQQGNVFSCSVMHEALHNHYTQKSLSLSPGK | – |
| – | 2.28 nM | 2.62 nM | 2.98 nM | Telitacicept (RCT-18) (Fc fusion, Positive control, TACI-Fc) SRVDQEERFPQGLWTGVAMRSCPEEQYWDPLLGTCMSCKTICNHQSQRTCAAFCRSLSCRKEQGKFYDHLLRDCISCASICGQHPKQCAYFCENKLRSPVNLPPELDKTHTCPPCPAPEAEGAPSVFLFPPKPKDTLMISRTPEVTCVVVDVSHEDPEVKFNWYVDGVEVHNAKTKPREEQYNSTYRVVSVLTVLHQDWLNGKEYKCKVSNKALPSSIEKTISKAKGQPREPQVYTLPPSRDELTKNQVSLTCLVKGFYPSDIAVEWESNGQPENNYKTTPPVLDSDGSFFLYSKLTVDKSRWQQGNVFSCSVMHEALHNHYTQKSLSLSPGK | Flow cytometry proliferating B cell proportion (%), mean, BAFF-induced, drug at 10 nM [8]: 36%; Flow cytometry proliferating B cell proportion (%), mean, BAFF-induced, drug at 100 nM [8]: 30.7%; Flow cytometry proliferating B cell proportion (%), mean, BAFF-induced, drug at 1000 nM [8]: 24.3%; Flow cytometry proliferating B cell proportion (%), mean, APRIL-induced, drug at 4.12 nM [9]: 48.1%; Flow cytometry proliferating B cell proportion (%), mean, APRIL-induced, drug at 12.35 nM [9]: 49.2%; Flow cytometry proliferating B cell proportion (%), mean, APRIL-induced, drug at 37.04 nM [9]: 50.1%; Flow cytometry proliferating B cell proportion (%), mean, APRIL-induced, drug at 111.11 nM [9]: 50.3%; Flow cytometry proliferating B cell proportion (%), mean, APRIL-induced, drug at 333.33 nM [9]: 49.1%; Flow cytometry proliferating B cell proportion (%), mean, APRIL-induced, drug at 1000.00 nM [9]: 46.3%; Emax [10]: 2.5 nM |
